First the molecules themselves.
B1: Membrane-associated guanylate kinase, WW and PDZ domain-containing protein 1, residues 352 to 401; numbered along this chain, Q96QZ7 (parent)
chain: TEELDSELELPAGWEKIEDPVYGIYYVDHINRKTQYENPVLEAKRKKQLE

± gives the uncertainty stated by the source.

The variants in this data set derive from B1. As to the kind of experiment: abundance fitness (aPCA) (normalised: wild type 0, dead -1); higher = more abundant; growth selection in yeast, the domain comes from the species named. The conditions noted are these: Homo sapiens.
Turning to H29W, the abundance fitness was -0.439 ± 0.049.
Consider H29V, for which the abundance fitness was -0.207 ± 0.038.
As for H29T, the figure is 0.016 ± 0.064.
For H29M the value was -0.386 ± 0.057; for H29L, -0.156 ± 0.042; for H29Q, -0.465 ± 0.086.
For H29R the value was -0.217 ± 0.043; for H29P, -0.515 ± 0.057; for H29S, -0.26 ± 0.064.
Consider H29N, for which the abundance fitness is -0.01 ± 0.082.
As for K33I, the figure is -0.291 ± 0.083.
For K33C the value was -0.074 ± 0.074.
As for K33F, the figure is -0.52 ± 0.15; as for K33A, -0.057 ± 0.048.
As for K33V, the abundance fitness was -0.028 ± 0.044.
For K33T, the abundance fitness is -0.158 ± 0.066.
As to K33Q, the abundance fitness is -0.034 ± 0.046.
For K33D the value was -0.066 ± 0.1; for K33E, -0.488 ± 0.083; for K33L, -0.028 ± 0.039.
As for K33Y, the figure is -0.331 ± 0.09.
For K33S the value was -0.222 ± 0.059; for K33W, -0.347 ± 0.051.
Turning to K33N, the abundance fitness was -0.169 ± 0.12.
For K33H the value was -0.463 ± 0.14.
As for K33P, the figure is -0.815 ± 0.13; as for K33G, -0.414 ± 0.054; as for K33M, -0.236 ± 0.081.
In the case of E37W, the abundance fitness was -0.47 ± 0.046.
On to E37L, for which the abundance fitness was -0.213 ± 0.049.
As for E37A, the figure is -0.192 ± 0.053; as for E37M, -0.296 ± 0.07.
For E37N the value was -0.005 ± 0.098; for E37C, -0.292 ± 0.051.
For E37R the value was -0.401 ± 0.058; for E37T, -0.177 ± 0.057.
Turning to E37H, the abundance fitness is -0.321 ± 0.11.
For E37F the value was -0.438 ± 0.054; for E37V, -0.286 ± 0.048.
As for E37S, the figure is -0.162 ± 0.042; as for E37P, -0.56 ± 0.087.
As for E37K, the figure is -0.282 ± 0.11; as for E37Q, -0.176 ± 0.071; as for E37Y, -0.611 ± 0.089.
E37G: the abundance fitness was -0.213 ± 0.044.
For E37D, the abundance fitness is -0.151 ± 0.079.
Turning to K47W, the abundance fitness was -0.414 ± 0.072.
For K47R the value was -0.163 ± 0.043; for K47N, -0.318 ± 0.12.
As for K47M, the figure is -0.102 ± 0.049.
Turning to K47C, the abundance fitness was -0.232 ± 0.085.
For K47A the value was -0.075 ± 0.076.
As for K47H, the figure is -0.172 ± 0.059.
For K47F the value was -0.239 ± 0.14; for K47D, -0.154 ± 0.088.
For the variant K47Y, the abundance fitness was -0.207 ± 0.06.
As for K47P, the figure is -0.121 ± 0.08.
As for K47G, the figure is -0.169 ± 0.057; as for K47L, -0.008 ± 0.053.
For K47S the value was 0.016 ± 0.059.
For the variant K47Q, the abundance fitness amounted to 0.013 ± 0.059.
As for K47E, the figure is -0.25 ± 0.094; as for K47T, -0.077 ± 0.044; as for T34M, -0.265 ± 0.068.
As for T34K, the figure is -0.219 ± 0.088; as for T34R, -0.035 ± 0.05.
Consider T34S, for which the abundance fitness is -0.11 ± 0.048.
For T34L the value was -0.603 ± 0.079; for T34F, -0.387 ± 0.079.
On to T34C, for which the abundance fitness came to 0.042 ± 0.074.
As for T34G, the figure is -0.453 ± 0.061; as for T34D, -0.414 ± 0.094; as for T34I, -0.502 ± 0.076.
Regarding T34H, the abundance fitness is -0.407 ± 0.09.
As for T34Y, the figure is -0.324 ± 0.089; as for T34N, -0.237 ± 0.083; as for T34E, -0.316 ± 0.083.
For T34A the value was -0.413 ± 0.053.
As to T34V, the abundance fitness is -0.232 ± 0.045.
For T34Q the value was -0.182 ± 0.072; for T34W, -0.193 ± 0.048; for K46F, -0.27 ± 0.1.
For K46A the value was -0.063 ± 0.058; for K46S, -0.093 ± 0.041.
As for K46Q, the figure is -0.026 ± 0.064; as for K46H, 0.173 ± 0.1; as for K46L, -0.133 ± 0.064.
For K46C, the abundance fitness was -0.103 ± 0.046.
In the case of K46W, the abundance fitness is -0.331 ± 0.056.
For K46P, the abundance fitness is -0.044 ± 0.087.
For K46V the value was -0.065 ± 0.041; for K46M, -0.328 ± 0.088.
Turning to K46Y, the abundance fitness was -0.169 ± 0.094.
For K46G the value was -0.089 ± 0.038; for K46D, 0.012 ± 0.052; for K46N, -0.41 ± 0.11.
As for K46E, the figure is -0.256 ± 0.072; as for K46T, -0.333 ± 0.11.
As for K46R, the figure is -0.094 ± 0.056; as for R32H, 0.125 ± 0.1.
As for R32C, the abundance fitness is -0.168 ± 0.07.
For R32L the value was -0.119 ± 0.055.
For R32F the value was -0.431 ± 0.063; for R32P, -0.564 ± 0.045; for R32W, -0.519 ± 0.053.
Consider R32D, for which the abundance fitness came out at 0.067 ± 0.087.
As for R32K, the figure is -0.061 ± 0.083; as for R32A, -0.249 ± 0.044.
For R32E the value was 0.002 ± 0.055; for R32G, -0.013 ± 0.039; for R32I, -0.387 ± 0.11.
For R32S the value was -0.119 ± 0.041.
Consider R32T, for which the abundance fitness was -0.607 ± 0.093.
As for R32V, the figure is -0.333 ± 0.042.
As for V40M, the figure is -0.033 ± 0.05; as for V40P, -0.404 ± 0.099.
For V40A the value was 0.068 ± 0.05.
For V40Y, the abundance fitness is -0.237 ± 0.086.
As for V40I, the figure is -0.197 ± 0.087.
In the case of V40R, the abundance fitness is -0.099 ± 0.054.
For the variant V40F, the abundance fitness is -0.385 ± 0.1.
As for V40K, the abundance fitness was -0.055 ± 0.041.
As for V40T, the abundance fitness is 0.006 ± 0.08.
For V40Q the value was -0.385 ± 0.069.
For V40G the value was -0.047 ± 0.053; for V40W, -0.177 ± 0.053; for V40E, -0.25 ± 0.073.
As for V40L, the figure is -0.016 ± 0.038; as for V40N, -0.038 ± 0.1.
For the variant V40S, the abundance fitness was -0.026 ± 0.061.
Take N31Y: the abundance fitness was -0.671 ± 0.085.
As for N31G, the figure is 0.009 ± 0.04.
As for N31W, the figure is -0.843 ± 0.13.
For N31C the value was -0.123 ± 0.077; for N31E, -0.396 ± 0.069; for N31V, -0.756 ± 0.055.
Turning to N31H, the abundance fitness is -0.069 ± 0.075.
As for N31I, the figure is -0.802 ± 0.16; as for N31K, -0.265 ± 0.093; as for N31P, -0.663 ± 0.071.
Consider N31R, for which the abundance fitness was -0.201 ± 0.061.
For N31T the value was -0.134 ± 0.063; for N31D, -0.28 ± 0.055.
For N31Q the value was -0.388 ± 0.12.
As for N31M, the figure is -0.444 ± 0.088.
N31L: the abundance fitness is -0.325 ± 0.041.
As for N31F, the figure is -0.784 ± 0.15.
As for N31A, the figure is -0.188 ± 0.051.
As for N31S, the figure is -0.135 ± 0.064; as for R45K, 0.02 ± 0.062.
Regarding R45T, the abundance fitness worked out at 0.048 ± 0.075.
As for R45E, the figure is 0.073 ± 0.047; as for R45H, -0.564 ± 0.19; as for R45A, -0.193 ± 0.061.
As for R45C, the figure is -0.241 ± 0.082; as for R45W, -0.352 ± 0.048; as for R45N, -0.363 ± 0.073.
As for R45S, the figure is -0.067 ± 0.05; as for R45P, -0.056 ± 0.059; as for R45L, -0.302 ± 0.066.
For the variant R45D, the abundance fitness was -0.171 ± 0.072.
As for R45G, the figure is -0.113 ± 0.039; as for R45M, -0.159 ± 0.083.
As for R45Y, the figure is -0.266 ± 0.045; as for R45Q, -0.032 ± 0.069.
In the case of R45V, the abundance fitness was -0.162 ± 0.052.
As for R45F, the figure is -0.248 ± 0.064.

The record behind these values is the Human Domainome abundance scans (Beltran et al. 2025).
